Residue numbers refer to the chain shown, from its start.

B1: E. coli MscL (EcoMscL) M42C (natural protein, UniProt P0A742 1-136, looked up)
chain: MSIIKEFREFAMRGNVVDLAVGVIIGAAFGKIVSSLVADIICPPLGLLIGGIDFKQFAVTLRDAQGDIPAVVMHYGVFIQNVFDFLIVAFAIFMAIKLINKLNRKKEEPAAAPAPTKEEVLLTEIRDLLKEQNNRS
modifications: Alexa Fluor 488 and/or Alexa Fluor 568 maleimide on the introduced cysteine (stochastic labelling)
notes: Mechanosensitive channel of large conductance MscL, Escherichia coli, single cysteine mutant on TM1; The MscL gene was cloned into pQE-32 as a BamHI-SalI fragment; 5% labeled channels were mixed with 95% unlabeled ones for reconstitution; also called mechanosensitive channel of large conductance; source: E. coli M15, purified from DDM solubilized membranes (TALON, FPLC Superdex 200), …
B2: E. coli MscL (EcoMscL) A27C (natural protein, UniProt P0A742 1-136, looked up)
chain: B1 chain with A27C, C42M
modifications: Alexa Fluor 488 and/or Alexa Fluor 568 maleimide on the introduced cysteine (stochastic labelling)
notes: Mechanosensitive channel of large conductance MscL, Escherichia coli, single cysteine mutant on TM1; Same construct as m1 apart from the cysteine position; Pentamer on cited work; some hexamers not excluded; source: E. coli M15, purified from DDM solubilized membranes (TALON, FPLC Superdex 200), reconstituted into liposomes; not shown: His6, N-terminal, kept
B3: E. coli MscL (EcoMscL) Y75C (natural protein, UniProt P0A742 1-136, looked up)
chain: B1 chain with C42M, Y75C
modifications: Alexa Fluor 488 and/or Alexa Fluor 568 maleimide on the introduced cysteine (stochastic labelling)
notes: Mechanosensitive channel of large conductance MscL, Escherichia coli, single cysteine mutant on TM2; Same construct as m1 apart from the cysteine position; Pentamer on cited work; some hexamers not excluded; source: E. coli M15, purified from DDM solubilized membranes (TALON, FPLC Superdex 200), reconstituted into liposomes; not shown: His6, N-terminal, kept
B4: E. coli MscL (EcoMscL) I25C (natural protein, UniProt P0A742 1-136, looked up)
chain: B1 chain with I25C, C42M
modifications: Alexa Fluor 488 and/or Alexa Fluor 568 maleimide on the introduced cysteine (stochastic labelling)
notes: Mechanosensitive channel of large conductance MscL, Escherichia coli, single cysteine mutant on TM1 near the pore constriction; Same construct as m1 apart from the cysteine position; Pentamer on cited work; some hexamers not excluded; source: E. coli M15, purified from DDM solubilized membranes (TALON, FPLC Superdex 200), reconstituted into liposomes; not shown: His6, N-terminal, kept
B5: E. coli MscL (EcoMscL) Q80C (natural protein, UniProt P0A742 1-136, looked up)
chain: B1 chain with C42M, Q80C
modifications: Alexa Fluor 488 and/or Alexa Fluor 568 maleimide on the introduced cysteine (stochastic labelling)
notes: as for B3
B6: E. coli MscL (EcoMscL) V82C (natural protein, UniProt P0A742 1-136, looked up)
chain: B1 chain with C42M, V82C
modifications: Alexa Fluor 488 and/or Alexa Fluor 568 maleimide on the introduced cysteine (stochastic labelling)
notes: as for B3

This series deals with the molecule itself. Put plainly: FRET or BRET; single molecule FRET (TIRF) between one AF488 donor and one AF568 acceptor on the single cysteines of two subunits of one channel; channels in ~50 nm POPC liposomes with 2% BPE, immobilised on a coverslip by biotin-neutravidin; without and with 25% LPC. (In BRET a luciferase serves as donor, and the signal depends on an acceptor being close.)
As to B1, the binding result was “binds”.
Next, B2: “binds”; B3: “binds”; B4: “binds”.
Next, B5: “binds”; B6: “binds”.
